Results from publication PMC10438457 (Science Advances, 2023).

T1: MBP-UFL1 (UniProt O94874 1-794)
T1 sequence: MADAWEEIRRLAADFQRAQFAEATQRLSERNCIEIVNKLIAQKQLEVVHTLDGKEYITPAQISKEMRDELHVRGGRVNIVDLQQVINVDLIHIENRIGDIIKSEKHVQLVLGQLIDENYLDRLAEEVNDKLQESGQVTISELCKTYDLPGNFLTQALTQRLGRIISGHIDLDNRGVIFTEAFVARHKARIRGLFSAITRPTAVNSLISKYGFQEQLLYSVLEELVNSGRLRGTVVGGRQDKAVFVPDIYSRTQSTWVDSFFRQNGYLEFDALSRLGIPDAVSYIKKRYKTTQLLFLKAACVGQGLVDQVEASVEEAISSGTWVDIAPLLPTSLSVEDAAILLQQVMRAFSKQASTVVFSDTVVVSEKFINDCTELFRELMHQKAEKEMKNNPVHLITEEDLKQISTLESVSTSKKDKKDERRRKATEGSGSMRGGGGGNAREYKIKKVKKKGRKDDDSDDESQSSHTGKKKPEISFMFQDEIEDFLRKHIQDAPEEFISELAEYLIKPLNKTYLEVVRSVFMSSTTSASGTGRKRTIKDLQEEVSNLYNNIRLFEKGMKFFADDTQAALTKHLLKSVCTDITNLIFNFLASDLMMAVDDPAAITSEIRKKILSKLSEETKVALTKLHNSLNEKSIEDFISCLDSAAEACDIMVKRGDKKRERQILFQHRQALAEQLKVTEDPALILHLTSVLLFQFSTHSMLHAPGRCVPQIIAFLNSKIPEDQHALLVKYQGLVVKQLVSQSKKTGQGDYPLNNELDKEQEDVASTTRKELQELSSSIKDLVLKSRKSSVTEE

B1: UFL1 (1-21), UFC1-binding sequence peptide (peptide)
peptide: MADAWEEIRRLAADFQRAQFA
B2: GST-CDK5RAP3 (natural protein)
chain: MEDHQHVPIDIQTSKLLDWLVDRRHCSLKWQSLVLTIREKINAAIQDMPESEEIAQLLSGSYIHYFHCLRILDLLKGTEASTKNIFGRYSSQRMKDWQEIIALYEKDNTYLVELSSLLVRNVNYEIPSLKKQIAKCQQLQQEYSRKEEECQAGAAEMREQFYHSCKQYGITGENVRGELLALVKDLPSQLAEIGAAAQQSLGEAIDVYQASVGFVCESPTEQVLPMLRFVQKRGNSTVYEWRTGTEPSVVERPHLEELPEQVAEDAIDWGDFGVEAVSEGTDSGISAEAAGIDWGIFPESDSKDPGGDGIDWGDDAVALQITVLEAGTQAPEGVARGPDALTLLEYTETRNQFLDELMELEIFLAQRAVELSEEADVLSVSQFQLAPAILQGQTKEKMVTMVSVLEDLIGKLTSLQLQHLFMILASPRYVDRVTEFLQQKLKQSQLLALKKELMVQKQQEALEEQAALEPKLDLLLEKTKELQKLIEADISKRYSGRPVNLMGTSL
B3: UFC1 (recombinant, GST tag cleaved) (enzyme)
chain: MADEATRRVVSEIPVLKTNAGPRDRELWVQRLKEEYQSLIRYVENNKNADNDWFRLESNKEGTRWFGKCWYIHDLLKYEFDIEFDIPITYPTTAPEIAVPELDGKTAKMYRGGKICLTDHFKPLWARNVPKFGLAHLMALGLGPWLAVEIPDLIQKGVIQHKEKCNQ

Tests used:
[1] = molecular target: B3; experiment: ITC
MBP-UFL1 = molecular target: T1, MBP-UFL1; experiment: pull-down
GST-CDK5RAP3 = molecular target: B2; experiment: pull-down

Binder: B1
Kd [1]: 410 nM

Binder: B2
binding result (MBP-UFL1): binds

Binder: B3
binding result (GST-CDK5RAP3): binds
